Source: patent US20240076386A1 (Pfizer, published 2024)

T1: human E-selectin, cell-surface expressed (human, UniProt P16581 22-610)
T1 construct: also called CHO-human E-selectin cells; human CHO-E
T1 sequence: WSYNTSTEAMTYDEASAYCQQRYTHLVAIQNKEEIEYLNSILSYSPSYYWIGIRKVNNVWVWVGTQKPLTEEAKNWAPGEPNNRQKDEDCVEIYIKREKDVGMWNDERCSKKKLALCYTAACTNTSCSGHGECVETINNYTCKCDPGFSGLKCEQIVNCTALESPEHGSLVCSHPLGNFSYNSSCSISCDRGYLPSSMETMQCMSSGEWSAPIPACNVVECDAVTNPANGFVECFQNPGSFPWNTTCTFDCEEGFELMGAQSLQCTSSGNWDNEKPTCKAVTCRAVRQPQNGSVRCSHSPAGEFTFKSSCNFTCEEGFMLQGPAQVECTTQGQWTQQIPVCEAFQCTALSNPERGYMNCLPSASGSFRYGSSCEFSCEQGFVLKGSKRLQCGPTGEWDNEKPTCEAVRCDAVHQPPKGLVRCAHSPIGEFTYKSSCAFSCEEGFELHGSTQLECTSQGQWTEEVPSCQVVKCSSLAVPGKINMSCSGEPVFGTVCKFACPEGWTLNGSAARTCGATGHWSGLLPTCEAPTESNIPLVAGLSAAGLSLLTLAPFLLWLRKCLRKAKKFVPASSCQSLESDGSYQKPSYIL

T2: cynomolgus monkey E-selectin, cell-surface expressed (cynomolgus monkey, UniProt P16581 22-610 (human entry))
T2 construct: also called CHO-cynomolgus monkey E-selectin cells; cynomolgus monkey CHO-E
T2 chain: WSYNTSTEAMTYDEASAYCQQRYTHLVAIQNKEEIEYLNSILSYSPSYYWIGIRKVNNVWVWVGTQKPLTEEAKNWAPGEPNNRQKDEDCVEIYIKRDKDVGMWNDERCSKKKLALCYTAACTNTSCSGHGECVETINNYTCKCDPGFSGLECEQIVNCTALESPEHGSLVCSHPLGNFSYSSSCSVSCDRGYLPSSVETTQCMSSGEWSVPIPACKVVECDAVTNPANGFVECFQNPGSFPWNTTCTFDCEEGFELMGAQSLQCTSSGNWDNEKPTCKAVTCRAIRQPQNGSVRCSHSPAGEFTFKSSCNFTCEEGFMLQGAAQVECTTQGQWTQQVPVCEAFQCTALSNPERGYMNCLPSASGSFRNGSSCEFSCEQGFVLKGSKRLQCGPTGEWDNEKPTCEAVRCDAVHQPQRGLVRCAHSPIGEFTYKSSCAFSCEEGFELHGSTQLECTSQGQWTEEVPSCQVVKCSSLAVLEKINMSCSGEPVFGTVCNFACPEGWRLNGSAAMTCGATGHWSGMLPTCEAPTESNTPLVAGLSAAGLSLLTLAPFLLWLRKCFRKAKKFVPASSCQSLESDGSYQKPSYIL


How the values were obtained:
[1] = target: T1, human E-selectin, cell-surface expressed; experiment: flow cytometry, CHO cells
Method: (§1) Cells were maintained in growth medium at 37° C., 5% CO₂ and 95% air in a humidified incubator. Methotrexate or Zeocin were removed from the medium prior to culture for experiments. CHO-E selectin cells were detached from T-150 flasks using citric saline (135 mM KCl, 15 mM sodium citrate) and immediately re-calcified with the addition of CaCl₂) to the detached cells to a final concentration of 1 mM. Growth media was immediately added to the detached cells, then centrifuged at 300×g for 5 minutes at room temperature to pellet the cells. Cells were plated into 96-well round-bottom plates in cold CHO buffer consisting of phosphate buffered saline (PBS), pH 7.4 containing bovine serum albumin (BSA; Sigma-Aldrich) at final concentration of 1%, calcium chloride at final concentration of 1 mM, and sodium azide at a final concentration of 0.1%, for 5 minutes on wet ice. After incubation, the cells were centrifuged at 300×g for 2 minutes at 4° C. to remove the buffer.
(§2) After incubation, the antibodies were removed and the cells were washed three times by centrifugation at 300×g for 1 minute at 4° C. and resuspended in cold CHO buffer. The washed cells were resuspended and incubated for 30 minutes on wet ice with 100 μL of 1:1000 dilution of APC-conjugated AffiniPure F(ab′)₂ Fragment Goat Anti-human IgG, Fcγ (Jackson Immunoresearch). The cells were washed three or four times prior to resuspension in CHO buffer for flow cytometric analysis. A Becton Dickinson LSRFortessa instrument using 640 nanometer laser line was used to acquire cell fluorescence data. Geometric mean fluorescence of cells was analyzed by FlowJo software package (FlowJo, LLC) and plotted against antibody concentration. The estimated EC₅₀ values were calculated using nonlinear regression analysis in the GraphPad Prism suite.

[2] = target: T2, cynomolgus monkey E-selectin, …; experiment: flow cytometry, CHO cells
Method: as §1, §2

[3] = target: T1, human E-selectin, cell-surface expressed; experiment: cell-based or functional assay
[4] = target: T1, human E-selectin, cell-surface expressed; experiment: competition ELISA on CHO cells vs sialyl Lewis ligand-PAA-biotin/SA-HRP
Method: (§3) In a static ligand cellular adhesion assay, horse radish peroxidase (HRP) conjugated E-selectin ligand and E-selectin antibodies compete for binding to human or cynomolgus E-selectin expressed on Chinese hamster ovary (CHO) cells. The ability of anti-E-selectin antibodies to neutralize the ligand binding was assessed in a static neutralization assay using a competition enzyme-linked immunosorbent assay (ELISA) to evaluate the neutralization of the sialyl Lewis antigen to Chinese hamster ovary cells (CHO) engineered to express human or cynomolgus monkey E-selectin.
(§4) CHO cells expressing E-selectin were seeded at 12,500 cells per well into a 96 well tissue culture plate and incubated at 37° C., 5% CO₂ for 48 hours to form a confluent monolayer. Plates were subsequently washed twice with 200 μL of calcium magnesium free PBS. Anti-E-selectin antibodies, or an IgG1 isotype control, were added to the assay in the presence of a small synthetic conjugate of biotinylated, sialyl Lewis A polyacrylamide (Carbosynth LLC, OS45446) or sialyl Lewis X polyacrylamide (Glycotech, 01-045) with a streptavidin/horseradish peroxidase (100 μL total) and incubated at 37° C., 5% CO₂ for 2 hours. Plates were then washed twice with 200 μL of calcium magnesium free PBS. Following the incubation, the cells were washed twice with 200 μL of wash buffer containing 2 mM calcium chloride (50 mM TRIS [trisaminomethane], 150 mM sodium chloride; 0.05% polysorbate 20, pH 7.4; 2 mM of calcium chloride). Signal was developed by adding 100 μL of 1-Step Ultra TMB substrate (Thermo Scientific, 34028) and incubating for 30 minutes at room temperature. Reactions were stopped using 2 M of sulfuric acid and absorbance was read at 450 nm (Spectramax M5e). Data was analyzed and graphed using GraphPad Prism software (Version 8.0.2).

[5] = target: T2, cynomolgus monkey E-selectin, …; experiment: as above
Method: as §3, §4

| EC50 [1] [nM] | EC50 [2] [nM] | neutralization under physiological flow, HL-60 cell adhesion to CHO-human E-selectin cells IC50 (nM) [3] [nM] | IC50 [4] [nM] | IC50 [5] [nM] | Binder |
| --- | --- | --- | --- | --- | --- |
| 1.62 | 1.54 | 4.17 | 3.81 | 1.74 | humanized anti-E-selectin antibody 0841 (antibody, human IgG1, kappa, V domains shown, effector-null human IgG1, kappa) VH: EVQLVESGGGLVQPGGSLRLSCAASGYNIRSSYMHWVRQAPGKGLEWVARIDPANGNTIYAEKFKIRFTISADNAKNSAYLQMNSLRAEDTAVYYCAMDLYSTSEYWGQGTLVTVSS VL: DIQMTQSPSSLSASVGDRVTITCKTSQNINRYLNWYQQKPGKAPKLLIYNANSLQTGVPSRFSGSGSGTDFTLTISSLQPEDFATYFCLQDNSWPLTFGQGTKVEIKR |
| 1.39 | 1.73 | 3.73 | 5.17 | 2 | anti-E-selectin antibody 0164 chimera (antibody, human IgG1, kappa, V domains shown, rat VH/VL on effector-null human IgG1 and human kappa) VH: EVQLQQSGAEFGKPGTSVKLSCKVSGYNIRSSYMHWVNQRPGKGLEWIGRIDPANGNTIYAEKFKIKAILTADSSSNTAYMQLSQLKSDDTAIYFCAMDLYSTSEYWGQGVMVTVSS VL: DIQMTQSPSFLSASVGDRVTINCKTSQNINRYLNWYQQKLGEAPKLLIYNANSLQTGIPSRFSASGSGTDFTLTINSLQPEDVATYFCLQDNSWPLTFGSGTKLEIKR |
